Measurements published in article PMC5089723, “Structural Insights into the Nucleotide-Binding Domains of the P1B-type ATPases HMA6 and HMA8 from Arabidopsis thaliana” (PLoS ONE, 2016).

Biological target: the molecule itself
Assay: not stated; oligomeric state of the purified N/P domains and of their truncated fragments 'in solution'

Row | Protein | stoichiometry N
1 | HMA8 nucleotide binding and phosphorylation domains (HMA8^N/P, residues 526-806) (domain or fragment, Arabidopsis thaliana, UniProt B9DFX7 526-806, looked up, also called N/P domain of HMA8; source: expressed and purified) RGYLIRGGDVLERLASIDCVALDKTGTLTEGRPVVSGVASLGYEEQEVLKMAAAVEKTATHPIAKAIVNEAESLNLKTPETRGQLTEPGFGTLAEIDGRFVAVGSLEWVSDRFLKKNDSSDMVKLESLLDHKLSNTSSTSRYSKTVVYVGREGEGIIGAIAISDCLRQDAEFTVARLQEKGIKTVLLSGDREGAVATVAKNVGIKSESTNYSLSPEKKFEFISNLQSSGHRVAMVGDGINDAPSLAQADVGIALKIEAQENAASNAASVILVRNKLSHVVD | 2
2 | HMA6 nucleotide binding and phosphorylation domains (HMA6^N/P, residues 576-853) (domain or fragment, Arabidopsis thaliana, UniProt Q9SZC9 576-853, looked up, also called N/P domain of HMA6; source: expressed and purified) RGLLLRGGDILEKFSLVDTVVFDKTGTLTKGHPVVTEVIIPENPRHNLNDTWSEVEVLMLAAAVESNTTHPVGKAIVKAARARNCQTMKAEDGTFTEEPGSGAVAIVNNKRVTVGTLEWVKRHGATGNSLLALEEHEINNQSVVYIGVDNTLAAVIRFEDKVREDAAQVVENLTRQGIDVYMLSGDKRNAANYVASVVGINHERVIAGVKPAEKKNFINELQKNKKIVAMVGDGINDAAALASSNVGVAMGGGAGAASEVSPVVLMGNRLTQLLDAME | 2
